The values that follow come from patent publication US20240352438A1, “MEANS AND METHODS FOR DETOXIFYING OCHRATOXIN A” (DSM Austria GmbH, priority 2021, published 2024).

B1: I308V/V355L: variant of the enzyme of SEQ ID NO: 318 having the mutation combination I308V/V355L (protein)
chain: MTTRTRILTAFLSLLAANACAADAAPAAPHTVVLRAARMFDGASGKLVDHPQLTIVGNKIVRIAQGDKAEVPAGAEVVDLGDATLLPGFIDAHVHLSGQSSDNWYGDFFDNMMRFPAEQALYGAYYARITLEAGFTSVRDVGSTDWVALGLRNAIDAGKVPGPRMLVSNYAVGSTGGHADQDPIPPHKLPLAGPLQGVCNGPEECRAAVRYQIKYGANVIKFMPSGGVLSLSDPVDAPELSQDEMNAVIGESHAWGRKVAAHAHGDKAAKMAVAAGVDSIEHGSFIEDDTLRAMKAKNVYLVPTISAVAHVEEKIGTFPPVIAEKGRAAAAHLRQTFRHAVQIGVPIALGTDAGLGAHGSNAREFRYMVENGLTPAQALLAGTANAARLLGTFDRVGTLEAGKLADVVAVPGNPIADITVTERPLFVMKDGVVVRRDAVR
modifications: exemplary polypeptide
B2: F318Y/V355L: variant of the enzyme of SEQ ID NO: 318 having the mutation combination F318Y/V355L (protein)
chain: B1 chain with V308I, F318Y
modifications: exemplary polypeptide
B3: 228 (protein)
chain: B1 chain with S230D, V308I, L355V
modifications: exemplary polypeptide
B4: 222 (protein)
chain: B1 chain with K188D, V308I, L355V
modifications: exemplary polypeptide
B5: 176 (protein)
chain: B1 chain with I184V, G354A, L355V
modifications: exemplary polypeptide
B6: 178 (protein)
chain: B1 chain with V308A, F318Y, G354A, L355V
modifications: exemplary polypeptide
B7: 185 (protein)
chain: B1 chain with V308I, A330V, L355V
modifications: exemplary polypeptide
B8: 236 (protein)
chain: B1 chain with S284D, V308I, L355V
modifications: exemplary polypeptide
B9: 161 (protein)
chain: B1 chain with V308A, G354A, L355V
modifications: exemplary polypeptide
B10: 249 (protein)
chain: B1 chain with V308I, L355V, H358A
modifications: exemplary polypeptide
B11: 250 (protein)
chain: B1 chain with V308I, L355V, H358K
modifications: exemplary polypeptide
B12: 251 (protein)
chain: B1 chain with V308I, L355V, H358N
modifications: exemplary polypeptide
B13: 212 (protein)
chain: B1 chain with H50P, V308I, L355V
modifications: exemplary polypeptide
B14: 205 (protein)
chain: B1 chain with V308I, I322S, L355V
modifications: exemplary polypeptide
B15: 229 (protein)
chain: B1 chain with S230P, V308I, L355V
modifications: exemplary polypeptide
B16: 223 (protein)
chain: B1 chain with K188E, V308I, L355V
modifications: exemplary polypeptide
B17: 170 (protein)
chain: B1 chain with A171P, V308A, G354A, L355V
modifications: exemplary polypeptide
B18: 215 (protein)
chain: B1 chain with N103L, V308I, L355V
modifications: exemplary polypeptide
B19: 226 (protein)
chain: B1 chain with G226P, V308I, L355V
modifications: exemplary polypeptide
B20: 233 (protein)
chain: B1 chain with D233S, V308I, L355V
modifications: exemplary polypeptide
B21: 204 (protein)
chain: B1 chain with V308I, I322Q, L355V
modifications: exemplary polypeptide
B22: 171 (protein)
chain: B1 chain with A171P, G354A, L355V
modifications: exemplary polypeptide
B23: 191 (protein)
chain: B1 chain with V308I, G354T, L355V
modifications: exemplary polypeptide
B24: 199 (protein)
chain: B1 chain with W104L, V308I, L355V
modifications: exemplary polypeptide
B25: 172 (protein)
chain: B1 chain with A171P, V308I, F318Y, G354A, L355V
modifications: exemplary polypeptide

Changes are numbered by the printed parent chain. In names and notes the source's numbering stands.

The nature of the first assay: OTA detoxification activity assay (specific activity, fluorescence reduction ex/em 390/450 nm). Type of assay: biochemical. The conditions noted are these: pH 6. On the procedure: To determine the specific activity of recombinant target polypeptides produced e.g. as described in Example 2 above in units per liter (U/L), ochratoxin A (OTA) detoxification activity assays were performed. One unit is defined as the amount of enzyme necessary for degradation of 1 μmol or OTA in 1 min when using a starting OTA concentration of […].
OTA detoxification activity assays were set up in a final volume of the reaction mixture of […], containing the recombinant enzyme preparation (preferably diluted to yield a volumetric activity of 1-10 mU/L), and 200 ng/mL OTA in 100 mM sodium phosphate buffer.
Specific activities were determined at pH 6.0 and pH 7.5. As soon as all components of the reaction mixture were mixed, OTA degradation was followed at 37° C. on a fluorescence spectrophotometer (BioTek Synergy H1 MFD Multimode microplate reader) by following the reduction in fluorescence at ex/em 390 nm/450 nm. For work performed at pH 6.0 and 7.5, a 100 mM sodium phosphate buffer was used.
For calculation of the specific activity, the initial linear part of the recorded fluorescence reduction curve was used. In addition to the fluorescence-based method described above, OTA degradation was also determined by using the HPLC-MS method as described by Dellafiora et al. 2020, Toxins 12, 258, essentially confirming the fluorescence-based results. Genes encoding either of the indicated SEQ ID NOs are expressed as described herein and the specific activities for the obtained polypeptide preparation are exemplarily shown in Table 8. Analogously, enzymatic activities using either ochratoxin B, C or TA as substrate or can be found.
Regarding B1, the “% of the activity of the non-mutated enzyme of SEQ ID NO: 318 at pH 6” value was 209%.

For B2, the “% of the activity of the non-mutated enzyme of SEQ ID NO: 318 at pH 6” value is reported as 197%.

The assay is the same for the next values; noted with them: pH 6.0; SEQ ID NO: 1 = 100%.
As to B3, the “Specific OTA detoxification activities in % compared to the enzyme of SEQ ID NO: 1, pH 6.0” value amounted to 23%.

On to B4, for which the “Specific OTA detoxification activities in % compared to the enzyme of SEQ ID NO: 1, pH 6.0” value is given as 8%.

Take B5: the “Specific OTA detoxification activities in % compared to the enzyme of SEQ ID NO: 1, pH 6.0” value came to 112%.

For the molecule B6, the “Specific OTA detoxification activities in % compared to the enzyme of SEQ ID NO: 1, pH 6.0” value was found to be 85%.

In the case of B7, the “Specific OTA detoxification activities in % compared to the enzyme of SEQ ID NO: 1, pH 6.0” value is recorded as 32%.

In the case of B8, the “Specific OTA detoxification activities in % compared to the enzyme of SEQ ID NO: 1, pH 6.0” value was 19%.

For B9, the “Specific OTA detoxification activities in % compared to the enzyme of SEQ ID NO: 1, pH 6.0” value stood at 132%.

For B10, the “Specific OTA detoxification activities in % compared to the enzyme of SEQ ID NO: 1, pH 6.0” value is 21%.

On to B11, for which the “Specific OTA detoxification activities in % compared to the enzyme of SEQ ID NO: 1, pH 6.0” value is 17%.

As to B12, the “Specific OTA detoxification activities in % compared to the enzyme of SEQ ID NO: 1, pH 6.0” value is on record as 53%.

In the case of B13, the “Specific OTA detoxification activities in % compared to the enzyme of SEQ ID NO: 1, pH 6.0” value is on record as 46%.

In the case of B14, the “Specific OTA detoxification activities in % compared to the enzyme of SEQ ID NO: 1, pH 6.0” value turned out to be 52%.

For B15, the “Specific OTA detoxification activities in % compared to the enzyme of SEQ ID NO: 1, pH 6.0” value is given as 21%.

As to B16, the “Specific OTA detoxification activities in % compared to the enzyme of SEQ ID NO: 1, pH 6.0” value was 14%.

With B17, the “Specific OTA detoxification activities in % compared to the enzyme of SEQ ID NO: 1, pH 6.0” value stood at 49%.

With B18, the “Specific OTA detoxification activities in % compared to the enzyme of SEQ ID NO: 1, pH 6.0” value was 27%.

On to B19, for which the “Specific OTA detoxification activities in % compared to the enzyme of SEQ ID NO: 1, pH 6.0” value was found to be 19%.

On to B20, for which the “Specific OTA detoxification activities in % compared to the enzyme of SEQ ID NO: 1, pH 6.0” value worked out at 11%.

Regarding B21, the “Specific OTA detoxification activities in % compared to the enzyme of SEQ ID NO: 1, pH 6.0” value stood at 41%.

Turning to B22, the “Specific OTA detoxification activities in % compared to the enzyme of SEQ ID NO: 1, pH 6.0” value is listed as 69%.

As for B23, the “Specific OTA detoxification activities in % compared to the enzyme of SEQ ID NO: 1, pH 6.0” value is recorded as 21%.

With B24, the “Specific OTA detoxification activities in % compared to the enzyme of SEQ ID NO: 1, pH 6.0” value is given as 9%.

For B25, the “Specific OTA detoxification activities in % compared to the enzyme of SEQ ID NO: 1, pH 6.0” value was 62%.

Still in this assay, the particulars now being: pH 7.5.
B1: the “% of the activity of the non-mutated enzyme of SEQ ID NO: 318 at pH 7.5” value turned out to be 189%.

With B2, the “% of the activity of the non-mutated enzyme of SEQ ID NO: 318 at pH 7.5” value amounted to 138%.

Still in this assay, the particulars now being: pH 7.5; SEQ ID NO: 1 = 100%.
As to B3, the “Specific OTA detoxification activities in % compared to the enzyme of SEQ ID NO: 1, pH 7.5” value was 19%.

In the case of B4, the “Specific OTA detoxification activities in % compared to the enzyme of SEQ ID NO: 1, pH 7.5” value was 20%.

Regarding B5, the “Specific OTA detoxification activities in % compared to the enzyme of SEQ ID NO: 1, pH 7.5” value is listed as 95%.

On to B6, for which the “Specific OTA detoxification activities in % compared to the enzyme of SEQ ID NO: 1, pH 7.5” value was determined as 88%.

As to B7, the “Specific OTA detoxification activities in % compared to the enzyme of SEQ ID NO: 1, pH 7.5” value is 18%.

Take B8: the “Specific OTA detoxification activities in % compared to the enzyme of SEQ ID NO: 1, pH 7.5” value stood at 15%.

Turning to B9, the “Specific OTA detoxification activities in % compared to the enzyme of SEQ ID NO: 1, pH 7.5” value was determined as 110%.

As to B10, the “Specific OTA detoxification activities in % compared to the enzyme of SEQ ID NO: 1, pH 7.5” value came to 26%.

Take B11: the “Specific OTA detoxification activities in % compared to the enzyme of SEQ ID NO: 1, pH 7.5” value turned out to be 21%.

With B12, the “Specific OTA detoxification activities in % compared to the enzyme of SEQ ID NO: 1, pH 7.5” value is 33%.

As for B13, the “Specific OTA detoxification activities in % compared to the enzyme of SEQ ID NO: 1, pH 7.5” value is 17%.

Take B14: the “Specific OTA detoxification activities in % compared to the enzyme of SEQ ID NO: 1, pH 7.5” value was 24%.

On to B15, for which the “Specific OTA detoxification activities in % compared to the enzyme of SEQ ID NO: 1, pH 7.5” value is given as 15%.

In the case of B16, the “Specific OTA detoxification activities in % compared to the enzyme of SEQ ID NO: 1, pH 7.5” value stood at 16%.

Consider B17, for which the “Specific OTA detoxification activities in % compared to the enzyme of SEQ ID NO: 1, pH 7.5” value turned out to be 32%.

As for B18, the “Specific OTA detoxification activities in % compared to the enzyme of SEQ ID NO: 1, pH 7.5” value was 20%.

For B19, the “Specific OTA detoxification activities in % compared to the enzyme of SEQ ID NO: 1, pH 7.5” value stood at 22%.

Take B20: the “Specific OTA detoxification activities in % compared to the enzyme of SEQ ID NO: 1, pH 7.5” value is on record as 17%.

As to B21, the “Specific OTA detoxification activities in % compared to the enzyme of SEQ ID NO: 1, pH 7.5” value worked out at 24%.

On to B22, for which the “Specific OTA detoxification activities in % compared to the enzyme of SEQ ID NO: 1, pH 7.5” value came out at 37%.

In the case of B23, the “Specific OTA detoxification activities in % compared to the enzyme of SEQ ID NO: 1, pH 7.5” value is on record as 28%.

With B24, the “Specific OTA detoxification activities in % compared to the enzyme of SEQ ID NO: 1, pH 7.5” value amounted to 34%.

Regarding B25, the “Specific OTA detoxification activities in % compared to the enzyme of SEQ ID NO: 1, pH 7.5” value is recorded as 70%.
